Measured values as given in patent US20150093336A1 (VIB VZW, published 2015).
Numbering of substitutions follows the chain as printed.

B1: NbhMMRm1.33 (VHH)
VHH: QVQLQESGGGLVQPGGSLRLSCAASGFTLDNYTVAWFRQAPGKEREGVSCISSSGGSTNYADSVKGRFTISRDNSKKSVYLQMNSLKPEDTAIYTCAAERAPPYYSGYYFFDSTCVAASYDYWGQGTQVTVSS
notes: Produced from pMECS in E. coli WK6 with C-terminal HA and 6xHis tag; also called NbMMRm1.33
B2: NbhmMMRm19.52 (VHH)
VHH: QVQLQESGGGLVQAGGSLRLSCLASGDTFSNYVMAWFRQAPGKEREIVAAIRLSGARYVPDSVKGRFTISRDNAKNAMYLQMTSLKPEDTARYYCAAGHTWGQYAYWGQGTQVTVSS
notes: Produced from pMECS with C-terminal HA and 6xHis tag
B3: NbhMMRm11.5 (VHH)
VHH: QVQLQESGGGLVQPGGSLMLSCAASGNIFTINRMGWYRQAPGKQRELVAAITSGGNTNYADSVKGRFTISRDNAKNTVYLQMNSLKPEDTAVYYCNAAIVTMTSPYSDYWGQGTQVTVSS
notes: as for B2
B4: NbhmMMRm14.4 (VHH)
VHH: QVQLQESGGGLVQAGDSLRLSCAASGRTFSINYMGWYRQAPGKQRELVAAITSGSGSTNYADSVKGRFTISRDNAKNTMYLQMNSLKPEDTAVYYCNADMDSSLSGGYVDVWGQGTQVTVSS
notes: as for B2
B5: NbhmMMRm14.93 (VHH)
VHH: B4 VHH with N77K
notes: as for B2
B6: NbhMMRm10.19 (VHH)
VHH: QVQLQESGGGLVQPGGSLKLSCAASGSIFSIKTMGWYRQAPGKQRELVAAITSGGSTNYADSVKGRFTISRDNAKNTVYLQMNSLKPEDTAVYYCNADGVVAWDQPYDNYWGQGTQVTVSS
notes: as for B2
B7: NbhmMMRm10.79 (VHH)
VHH: B6 VHH with I51V, T52S, T77A
notes: as for B2
B8: NbhMMRm2.15 (VHH)
VHH: QVQLQESGGGLVQPGESLRLSCKLSGFTLDYYDIGWFRQAPGKEREGVSCISSIGGSANYADSVKGRFTISRDNVKNTVYLQMNSLKPEDTAIYYCAAEAQTPYNDGDCTRASYDYWGQGIQVTVSS
notes: as for B2
B9: NbhMMRm12.6 (VHH)
VHH: QVQLQESGGGLVQPGGSLRLSCVVSGSFLSINHMGWYRQVSGEQRELVAAITSGGSTNYADSVKGRFTISRDSAKNTVYLQMNSLKPEDTAVYYCNADALTMLPPFDFWGQGTQVTVSS
notes: as for B2
B10: NbhmMMRm20.52 (VHH)
VHH: QVQLQESGGGLVQAGGSLRLSCAASGRIFSAYAMGWFRQAPGKEREFVAAISRSGDSTDYADSVKGRFTISRDSAKNMVYLQMNSLKPEDTALYHCAARTVSAPPSAAWGYGYWGQGTQVTVSS
notes: as for B2
B11: NbhMMRm16.95 (VHH)
VHH: QVQLQESGGGLVQPGGSLGLSCAASGRIASISAMGWYRQAPGKQRELVAAITGSGRTNYADSVKGRFTISRDNAKNTVYLQMNSLKPEDTAVYYCNLLMVDYGLGLGTDYWGQGTQVTVSS
notes: as for B2

Biological target: T1, Recombinant mouse MMR (R&D systems) (mouse, UniProt Q61830 20-1388)
T1 construct: Antigen of the PE-ELISA and the SPR; also called mMMR; recombinant mMMR
T1 sequence: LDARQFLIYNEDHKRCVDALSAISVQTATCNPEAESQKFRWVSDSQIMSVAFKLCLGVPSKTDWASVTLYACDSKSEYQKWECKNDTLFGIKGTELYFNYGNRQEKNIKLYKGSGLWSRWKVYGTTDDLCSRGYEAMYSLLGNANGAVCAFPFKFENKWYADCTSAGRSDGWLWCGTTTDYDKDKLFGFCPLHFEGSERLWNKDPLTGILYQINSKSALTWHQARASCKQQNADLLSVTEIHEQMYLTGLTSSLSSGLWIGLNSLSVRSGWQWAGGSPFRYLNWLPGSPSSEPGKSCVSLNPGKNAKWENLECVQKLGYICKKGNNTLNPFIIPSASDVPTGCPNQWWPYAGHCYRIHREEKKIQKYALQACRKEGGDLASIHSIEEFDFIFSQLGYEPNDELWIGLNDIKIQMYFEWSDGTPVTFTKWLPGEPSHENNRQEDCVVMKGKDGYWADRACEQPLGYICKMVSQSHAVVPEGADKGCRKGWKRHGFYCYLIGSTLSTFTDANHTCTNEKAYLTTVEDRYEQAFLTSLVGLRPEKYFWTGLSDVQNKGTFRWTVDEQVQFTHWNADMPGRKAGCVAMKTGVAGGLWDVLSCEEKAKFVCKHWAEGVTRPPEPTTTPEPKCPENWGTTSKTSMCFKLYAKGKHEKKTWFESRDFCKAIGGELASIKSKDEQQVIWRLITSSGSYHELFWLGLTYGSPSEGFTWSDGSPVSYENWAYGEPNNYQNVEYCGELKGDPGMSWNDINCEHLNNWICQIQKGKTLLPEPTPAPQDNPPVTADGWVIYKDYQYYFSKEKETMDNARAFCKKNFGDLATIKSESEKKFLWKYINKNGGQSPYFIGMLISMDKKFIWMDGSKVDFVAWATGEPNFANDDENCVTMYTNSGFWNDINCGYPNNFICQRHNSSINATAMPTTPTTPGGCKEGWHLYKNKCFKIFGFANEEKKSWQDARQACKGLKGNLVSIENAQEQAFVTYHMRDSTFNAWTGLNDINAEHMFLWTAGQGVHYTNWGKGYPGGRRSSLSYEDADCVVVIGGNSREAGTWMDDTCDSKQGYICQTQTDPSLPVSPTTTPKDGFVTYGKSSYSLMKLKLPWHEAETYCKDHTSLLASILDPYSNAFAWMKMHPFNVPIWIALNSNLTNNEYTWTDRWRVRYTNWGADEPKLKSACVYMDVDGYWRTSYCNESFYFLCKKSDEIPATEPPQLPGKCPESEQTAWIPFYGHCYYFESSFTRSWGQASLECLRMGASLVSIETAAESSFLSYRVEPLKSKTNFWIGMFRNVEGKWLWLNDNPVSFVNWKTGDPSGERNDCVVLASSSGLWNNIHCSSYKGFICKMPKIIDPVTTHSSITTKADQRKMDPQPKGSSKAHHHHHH
Test: SPR, BIAcore T100; mouse MMR on CM5 chip, sdAb as analyte
Experimental: (§1) Affinity analysis was performed using a BIAcore™ T100 (GE Healthcare) with HEPES-buffered saline running buffer (10 mM HEPES with 0.15 M NaCl, 3.4 mM EDTA and 0.005% surfactant P20 at pH 7.4). MRR was immobilized on a CM5 chip in acetate buffer 50 mM (pH 5.0), resulting in 2100 RU MMR coated on the chip. A second channel on the same chip was activated/deactivated in a similar way and served as a negative control. The MMR sdAbs were used as analytes in eleven different concentrations, ranging from 1 to 2000 nM, at a flow rate of […]. Glycine-HCl 50 mM (pH 2.0) was used for elution. The kinetic and equilibrium parameters (kd, ka and KD) values were calculated from the combined sensogram of all concentrations using BIAcore™ T100 evaluation software 2.02 (GE Healthcare).
(§2) The binding characteristics and affinity of selected Nbs towards the recombinant hMMR and recombinant mMMR antigen was examined in further detail using surface plasmon resonance. A combined sensogram was recorded for each Nb (example for NbhmMMRm3.49 in FIG. 5) and the kinetic and equilibrium parameters (kd, ka and KD) values were calculated (Table 4 and Table 5). Most but not all results on binding to mouse or human rMMR obtained via this SPR analysis are in agreement with the results obtained by PE-ELISA.

B1: no binding (tested: analyte 1 to 2000 nM).
B8: no binding (tested: analyte 1 to 2000 nM).
B9: no binding (tested: analyte 1 to 2000 nM).
B11: no binding (tested: analyte 1 to 2000 nM).

Compared with B2, B3 is 71-fold lower in Kd: 8500 nM for the first, 120 nM for the second. The second binds more tightly here.

B4 and B5 are within 1.5-fold of each other in Kd: 68 nM for the first, 74 nM for the second.

First: B6
Second: B7
The Kd of the first is 6.4-fold higher: 250 nM for the first, 39 nM for the second.

Binder B10 has a Kd of 1.3 nM.

First: B2
Second: B3
The koff of the first is 1.7-fold higher: 0.032 s⁻¹ for the first, 0.019 s⁻¹ for the second.

B4 and B5 are within 1.5-fold of each other in koff: 0.0023 s⁻¹ for the first, 0.0021 s⁻¹ for the second.

First: B6
Second: B7
The koff of the first is 50-fold higher: 0.21 s⁻¹ for the first, 0.0042 s⁻¹ for the second.

In the case of B10, the koff is reported as 0.002 s⁻¹.

Compared with B2, B3 is 41-fold higher in kon: 3700 M⁻¹ s⁻¹ for the first, 150000 M⁻¹ s⁻¹ for the second.

B4 and B5 are within 1.5-fold of each other in kon: 33000 M⁻¹ s⁻¹ for the first, 29000 M⁻¹ s⁻¹ for the second.

Going from B6 to B7, the kon falls from 840000 M⁻¹ s⁻¹ to 110000 M⁻¹ s⁻¹ (7.6-fold).

For B10, the kon was 1.6e+06 M⁻¹ s⁻¹.

Biological target: T2, Recombinant human MMR (R&D systems) (human, UniProt P22897 19-1383)
T2 construct: Antigen of the PE-ELISA and the SPR; also called hMMR; recombinant hMMR
T2 sequence: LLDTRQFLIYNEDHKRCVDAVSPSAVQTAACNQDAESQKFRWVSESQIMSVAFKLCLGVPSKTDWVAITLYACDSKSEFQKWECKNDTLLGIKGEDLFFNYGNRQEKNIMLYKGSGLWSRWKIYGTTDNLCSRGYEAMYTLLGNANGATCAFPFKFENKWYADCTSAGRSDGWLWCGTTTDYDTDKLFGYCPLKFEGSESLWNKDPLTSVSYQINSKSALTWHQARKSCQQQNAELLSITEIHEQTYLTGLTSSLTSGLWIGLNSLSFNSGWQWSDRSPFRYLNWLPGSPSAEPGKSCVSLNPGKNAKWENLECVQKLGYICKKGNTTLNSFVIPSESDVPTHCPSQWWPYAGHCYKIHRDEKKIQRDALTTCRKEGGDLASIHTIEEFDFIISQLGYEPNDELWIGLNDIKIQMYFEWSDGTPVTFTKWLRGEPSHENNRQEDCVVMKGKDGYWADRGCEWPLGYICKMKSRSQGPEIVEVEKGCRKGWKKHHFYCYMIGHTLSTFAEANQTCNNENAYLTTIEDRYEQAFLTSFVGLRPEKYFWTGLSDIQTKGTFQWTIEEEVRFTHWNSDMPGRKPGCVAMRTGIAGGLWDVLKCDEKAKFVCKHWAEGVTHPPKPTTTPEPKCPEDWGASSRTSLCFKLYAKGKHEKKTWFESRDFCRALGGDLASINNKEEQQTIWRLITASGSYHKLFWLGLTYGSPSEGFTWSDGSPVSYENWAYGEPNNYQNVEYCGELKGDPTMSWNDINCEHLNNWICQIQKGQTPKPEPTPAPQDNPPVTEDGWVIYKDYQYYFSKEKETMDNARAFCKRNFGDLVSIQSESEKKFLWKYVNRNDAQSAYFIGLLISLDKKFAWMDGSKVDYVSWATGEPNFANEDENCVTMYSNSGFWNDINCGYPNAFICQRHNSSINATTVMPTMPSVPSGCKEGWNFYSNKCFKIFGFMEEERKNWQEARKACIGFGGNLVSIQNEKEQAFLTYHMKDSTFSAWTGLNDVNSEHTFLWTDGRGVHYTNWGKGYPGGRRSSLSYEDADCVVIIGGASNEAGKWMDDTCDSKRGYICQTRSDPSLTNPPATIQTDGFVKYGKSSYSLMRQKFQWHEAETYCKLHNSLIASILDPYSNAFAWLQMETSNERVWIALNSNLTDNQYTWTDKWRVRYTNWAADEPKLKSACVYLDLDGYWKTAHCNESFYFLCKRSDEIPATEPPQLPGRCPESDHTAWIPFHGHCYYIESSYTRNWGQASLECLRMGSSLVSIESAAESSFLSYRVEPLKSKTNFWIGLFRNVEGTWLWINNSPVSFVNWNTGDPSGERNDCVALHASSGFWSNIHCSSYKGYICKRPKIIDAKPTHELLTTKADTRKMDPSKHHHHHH
Test: SPR, BIAcore T100; human MMR on CM5 chip, sdAb as analyte
Experimental: as §1, §2

First: B1
Second: B2
The Kd of the first is 220-fold lower: 7.7 nM for the first, 1700 nM for the second.

Compared with B3, B4 is 5.5-fold lower in Kd: 55 nM for the first, 10 nM for the second. The second binds more tightly here.

Going from B5 to B6, the Kd rises from 13 nM to 50 nM (3.8-fold). The first binds more tightly here.

Compared with B7, B8 is 49-fold lower in Kd: 420 nM for the first, 8.6 nM for the second. The second binds more tightly here.

First: B9
Second: B10
The Kd of the first is 32-fold lower: 8.2 nM for the first, 260 nM for the second. The first binds more tightly here.

In the case of B11, the Kd is reported as 21 nM.

Compared with B1, B2 is 6.7-fold higher in koff: 0.0015 s⁻¹ for the first, 0.01 s⁻¹ for the second.

Compared with B3, B4 is 16-fold lower in koff: 0.022 s⁻¹ for the first, 0.0014 s⁻¹ for the second.

Compared with B5, B6 is 26-fold higher in koff: 0.0012 s⁻¹ for the first, 0.031 s⁻¹ for the second.

Going from B7 to B8, the koff falls from 0.0066 s⁻¹ to 0.0013 s⁻¹ (5.1-fold).

Going from B9 to B10, the koff rises from 0.0012 s⁻¹ to 0.13 s⁻¹ (110-fold).

B11 was tested, and the koff was 0.0014 s⁻¹.

Going from B1 to B2, the kon falls from 200000 M⁻¹ s⁻¹ to 6000 M⁻¹ s⁻¹ (33-fold).

First: B3
Second: B4
The kon of the first is 2.9-fold higher: 400000 M⁻¹ s⁻¹ for the first, 140000 M⁻¹ s⁻¹ for the second.

First: B5
Second: B6
The kon of the first is 7.9-fold lower: 95000 M⁻¹ s⁻¹ for the first, 750000 M⁻¹ s⁻¹ for the second.

Going from B7 to B8, the kon rises from 16000 M⁻¹ s⁻¹ to 150000 M⁻¹ s⁻¹ (9.4-fold).

Going from B9 to B10, the kon rises from 150000 M⁻¹ s⁻¹ to 510000 M⁻¹ s⁻¹ (3.4-fold).

B11 was tested, and the kon was 66000 M⁻¹ s⁻¹.
